The target in data set [1] is N-parp (Zn1-Zn3 and BRCT) (UniProt P09874 1-486). The data set can be described thus: HI-FI FRET.
In data set [2] the target is PARP-1 (full-length) (human, UniProt P09874 1-1014, V762A). The data set can be described thus: HI-FI FRET.
PARP-1 (full-length), sequence (P09874 whole entry V762A): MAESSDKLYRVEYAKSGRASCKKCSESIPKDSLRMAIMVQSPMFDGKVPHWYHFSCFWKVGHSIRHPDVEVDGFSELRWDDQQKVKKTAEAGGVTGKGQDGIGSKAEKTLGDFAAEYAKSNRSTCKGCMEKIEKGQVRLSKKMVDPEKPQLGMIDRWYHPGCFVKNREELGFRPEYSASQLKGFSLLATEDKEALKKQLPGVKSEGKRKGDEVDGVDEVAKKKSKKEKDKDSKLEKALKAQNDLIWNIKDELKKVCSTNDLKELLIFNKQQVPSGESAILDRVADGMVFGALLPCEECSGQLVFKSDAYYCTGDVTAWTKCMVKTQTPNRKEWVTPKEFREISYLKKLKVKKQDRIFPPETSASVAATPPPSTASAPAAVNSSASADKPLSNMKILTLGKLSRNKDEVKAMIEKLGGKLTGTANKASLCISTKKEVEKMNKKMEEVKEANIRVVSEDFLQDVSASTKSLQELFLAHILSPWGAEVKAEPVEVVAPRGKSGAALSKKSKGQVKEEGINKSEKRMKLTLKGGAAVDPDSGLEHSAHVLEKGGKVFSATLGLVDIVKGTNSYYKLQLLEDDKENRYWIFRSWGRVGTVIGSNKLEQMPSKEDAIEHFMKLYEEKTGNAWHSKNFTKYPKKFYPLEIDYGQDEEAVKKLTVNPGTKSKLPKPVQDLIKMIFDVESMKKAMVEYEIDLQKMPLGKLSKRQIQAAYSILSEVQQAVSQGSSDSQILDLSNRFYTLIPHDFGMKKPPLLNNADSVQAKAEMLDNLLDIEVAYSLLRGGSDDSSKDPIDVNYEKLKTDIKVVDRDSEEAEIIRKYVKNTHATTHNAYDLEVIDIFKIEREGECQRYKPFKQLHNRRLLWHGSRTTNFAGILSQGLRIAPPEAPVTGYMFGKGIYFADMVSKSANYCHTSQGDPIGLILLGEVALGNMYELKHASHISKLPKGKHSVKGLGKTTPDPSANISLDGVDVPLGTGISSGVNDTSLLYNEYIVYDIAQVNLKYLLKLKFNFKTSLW

N-parp (Zn1-Zn3 and BRCT), sequence (P09874 1-486): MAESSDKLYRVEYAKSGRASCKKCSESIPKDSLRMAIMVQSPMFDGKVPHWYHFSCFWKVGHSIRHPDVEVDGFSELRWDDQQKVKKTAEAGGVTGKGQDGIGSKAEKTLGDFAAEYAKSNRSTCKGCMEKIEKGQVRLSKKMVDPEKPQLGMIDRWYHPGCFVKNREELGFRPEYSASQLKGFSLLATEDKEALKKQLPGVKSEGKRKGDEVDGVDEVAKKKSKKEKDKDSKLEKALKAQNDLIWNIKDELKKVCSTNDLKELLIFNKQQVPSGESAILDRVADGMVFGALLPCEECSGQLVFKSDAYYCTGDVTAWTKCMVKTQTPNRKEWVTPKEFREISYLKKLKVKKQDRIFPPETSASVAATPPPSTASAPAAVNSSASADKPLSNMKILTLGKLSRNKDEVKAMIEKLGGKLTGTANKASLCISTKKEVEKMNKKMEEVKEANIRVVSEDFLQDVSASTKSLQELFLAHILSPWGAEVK

B1: 30Blunt (dsDNA)
DNA 1: ATCAGATAGCATCTGTGCGGCCGCTTAGGG
DNA 2: CCCTAAGCGGCCGCACAGATGCTATCTGAT
One may read the Kd as the constant that tells how readily two partners part at equilibrium. As for B1, the values for the Kd in data set [1] and in data set [2] were 62.2 ± 10.2 nM and 31.7 ± 6.9 nM, respectively.

B2: 30AATT (dsDNA)
DNA 1: ATCAGATAGCATCAATTCGGCCGCTTAGGG
DNA 2: CCCTAAGCGGCCGAATTGATGCTATCTGAT
modifications: 4 central bp of 30Blunt (TGTG) replaced by AATT
For B2, the Kd in data set [1] amounted to 25.7 ± 0.9 nM; in data set [2], 8.5 ± 2.1 nM.
